The values below come from patent publication US20100016556A1 (published 2010).

By Kd is commonly meant the constant that tells how readily two partners part at equilibrium. Read a low Kd as tighter binding.

The target in this assay is T1, CD3 on Jurkat cells (human, UniProt P07766 23-207).
T1 construct: whole, on cells; the CD3 complex has several chains; also called T cells (Jurkat); J6 cells
Nature of the assay: binding to J6 cells; method not described.

T1 sequence (P07766 23-207): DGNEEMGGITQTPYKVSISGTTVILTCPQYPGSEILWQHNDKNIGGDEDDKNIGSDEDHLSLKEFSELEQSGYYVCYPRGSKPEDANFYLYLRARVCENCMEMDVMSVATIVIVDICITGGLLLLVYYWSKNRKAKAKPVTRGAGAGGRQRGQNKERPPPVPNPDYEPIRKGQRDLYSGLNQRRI

B1: BsF(ab')2 v1 (anti-p185HER2/anti-CD3 v1) (bispecific antibody)
chain 1: not shown
chain 2: not shown
chain 3: DIQMTQSPSSLSASVGDRVTITCRASQDIRNYLNWYQQKPGKAPKLLIYYTSRLESGVPSRFSGSGSGTDYTLTISSLQPEDFATYYCQQGNTLPWTFGQGTKVEIK
chain 4: EVQLVESGGGLVQPGGSLRLSCAASGYSFTGYTMNWVRQAPGKGLEWVALINPYKGVTTYADSVKGRFTISVDKSKNTAYLQMNSLRAEDTAVYYCARSGYYGDSDWYFDVWGQGTLVTVSS
modifications: hinge Cys thioether-linked through o-PDM to the other Fab' arm
B1 registered a Kd of 140 nM.
